{
  "source": "paper PMC1669761",
  "about": "(Nucleic Acids Research, 2006)",
  "target": "T1, purified His-tagged Smad4 (human, UniProt Q13485 1-552)",
  "T1 sequence (looked up)": "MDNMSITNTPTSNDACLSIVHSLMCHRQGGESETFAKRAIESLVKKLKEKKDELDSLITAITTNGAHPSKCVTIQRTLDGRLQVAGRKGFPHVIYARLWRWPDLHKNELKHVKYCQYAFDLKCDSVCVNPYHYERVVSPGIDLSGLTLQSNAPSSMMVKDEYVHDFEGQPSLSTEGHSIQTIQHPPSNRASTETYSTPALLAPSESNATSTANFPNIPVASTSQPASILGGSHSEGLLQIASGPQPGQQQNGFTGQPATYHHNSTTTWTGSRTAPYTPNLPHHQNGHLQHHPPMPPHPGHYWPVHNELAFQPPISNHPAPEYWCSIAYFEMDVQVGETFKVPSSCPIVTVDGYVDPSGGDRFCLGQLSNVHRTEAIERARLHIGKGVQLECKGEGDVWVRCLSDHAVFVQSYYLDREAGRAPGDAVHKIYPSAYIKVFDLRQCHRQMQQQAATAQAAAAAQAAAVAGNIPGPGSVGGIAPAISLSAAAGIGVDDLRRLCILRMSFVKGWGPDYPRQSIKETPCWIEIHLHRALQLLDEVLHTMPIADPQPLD",
  "assay": "pull-down",
  "data": [
    {"binder": "GST-RBPMS(1–100) (domain or fragment) not shown", "values": [
      {"measurement": "binding result", "value": "binds"}
    ]}
  ]
}
